According to US20180282402A1 (ATYR PHARMA, published 2018):
No end group written: not given here.

How the values were obtained:
[1] = target: T1, NRP1-His (R&D Systems #3870-N1) (human, UniProt O14786-2 22-644); test: SPR: NRP1 as analyte over immobilized Fc-HRS(2-60)
T1 construct: not shown: His tag

[2] = target: T2, Mouse PLXNA1-His (R&D Systems #4309-PA) (mouse, UniProt P70206 28-1242, limits assumed); test: SPR: mouse Plexin A1 as analyte over immobilized Fc-HRS(2-60)
T2 construct: also called mouse Plexin A1; not shown: His tag
T2 sequence (P70206 28-1242 limits assumed): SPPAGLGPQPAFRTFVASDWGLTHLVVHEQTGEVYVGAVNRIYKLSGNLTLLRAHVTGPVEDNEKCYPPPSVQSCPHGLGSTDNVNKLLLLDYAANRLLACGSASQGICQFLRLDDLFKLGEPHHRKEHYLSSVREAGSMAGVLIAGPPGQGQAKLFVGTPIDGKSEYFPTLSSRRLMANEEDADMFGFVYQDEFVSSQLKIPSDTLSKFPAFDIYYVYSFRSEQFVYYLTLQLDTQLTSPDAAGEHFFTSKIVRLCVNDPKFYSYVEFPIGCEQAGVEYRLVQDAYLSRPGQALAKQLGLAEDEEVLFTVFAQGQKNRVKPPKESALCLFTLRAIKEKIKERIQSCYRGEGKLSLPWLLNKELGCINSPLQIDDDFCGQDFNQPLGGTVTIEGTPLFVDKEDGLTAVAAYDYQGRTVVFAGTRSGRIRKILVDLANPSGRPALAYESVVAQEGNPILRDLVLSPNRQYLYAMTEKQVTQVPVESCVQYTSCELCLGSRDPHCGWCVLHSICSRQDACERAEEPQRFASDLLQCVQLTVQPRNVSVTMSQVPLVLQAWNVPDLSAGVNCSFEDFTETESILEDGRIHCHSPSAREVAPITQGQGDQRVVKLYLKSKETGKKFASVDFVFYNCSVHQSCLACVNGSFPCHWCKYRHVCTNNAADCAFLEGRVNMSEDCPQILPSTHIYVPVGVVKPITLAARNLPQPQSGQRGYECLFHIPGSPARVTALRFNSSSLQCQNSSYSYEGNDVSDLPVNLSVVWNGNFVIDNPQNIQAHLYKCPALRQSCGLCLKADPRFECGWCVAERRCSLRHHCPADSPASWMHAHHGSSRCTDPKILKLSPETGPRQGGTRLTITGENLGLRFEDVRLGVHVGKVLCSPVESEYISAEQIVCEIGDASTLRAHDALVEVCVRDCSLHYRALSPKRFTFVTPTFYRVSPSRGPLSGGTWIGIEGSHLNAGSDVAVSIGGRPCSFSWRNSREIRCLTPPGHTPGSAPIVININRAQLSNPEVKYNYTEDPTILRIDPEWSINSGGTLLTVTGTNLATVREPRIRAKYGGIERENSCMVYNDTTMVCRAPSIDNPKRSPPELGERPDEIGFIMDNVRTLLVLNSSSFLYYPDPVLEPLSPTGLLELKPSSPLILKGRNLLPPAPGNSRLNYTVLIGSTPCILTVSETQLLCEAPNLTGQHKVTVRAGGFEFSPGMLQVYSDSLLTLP

[3] = target: T3, Rat NRP2-Fc-His (R&D Systems #567-N2) (rat, UniProt O35276 23-858, limits assumed); test: SPR: 50 nM rat NRP2 as analyte over immobilized Fc-HRS(2-60) [panel A]
T3 construct: not shown: Fc and His tag
T3 sequence (looked up): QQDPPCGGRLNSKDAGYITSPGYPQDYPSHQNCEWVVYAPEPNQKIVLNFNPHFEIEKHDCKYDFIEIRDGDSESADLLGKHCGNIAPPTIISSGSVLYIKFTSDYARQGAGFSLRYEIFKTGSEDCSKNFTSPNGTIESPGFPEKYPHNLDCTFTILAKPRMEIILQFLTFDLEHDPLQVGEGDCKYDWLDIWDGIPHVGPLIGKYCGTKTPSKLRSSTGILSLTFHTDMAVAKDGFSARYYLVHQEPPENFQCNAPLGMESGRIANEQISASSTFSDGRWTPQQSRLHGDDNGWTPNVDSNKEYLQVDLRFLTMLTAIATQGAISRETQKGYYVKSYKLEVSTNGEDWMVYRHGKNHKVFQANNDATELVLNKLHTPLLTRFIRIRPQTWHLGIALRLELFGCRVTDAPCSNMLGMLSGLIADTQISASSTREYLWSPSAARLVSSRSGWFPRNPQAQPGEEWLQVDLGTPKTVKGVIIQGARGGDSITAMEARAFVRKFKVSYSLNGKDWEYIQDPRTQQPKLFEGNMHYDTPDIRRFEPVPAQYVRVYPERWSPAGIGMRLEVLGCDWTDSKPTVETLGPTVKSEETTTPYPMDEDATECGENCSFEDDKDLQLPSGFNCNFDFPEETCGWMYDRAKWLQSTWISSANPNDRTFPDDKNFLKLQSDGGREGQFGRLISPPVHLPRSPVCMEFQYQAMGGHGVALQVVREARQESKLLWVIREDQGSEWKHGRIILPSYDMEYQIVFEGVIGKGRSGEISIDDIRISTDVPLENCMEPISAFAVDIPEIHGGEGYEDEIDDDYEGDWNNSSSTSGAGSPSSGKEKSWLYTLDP

[4] = target: T4, Neuropilin 2A (NRP2A, NM_003872.2) on cells (human, UniProt O60462 23-931); test: Retrogenix cell microarray on HEK293 cells, sequential staining, 20 ug/ml test protein, AF647 anti-human IgG Fc detection
T4 construct: Used here for the Retrogenix HEK293 array and for the untagged NRP2v2 stably expressed on Expi293 cells; also called NRP2 variant 2; NRP2v2
Protocol: The detection antibody was used at screening concentrations of 2, 5, and 20 μg/ml, as more fully described below.
Primary hits (duplicate spots) were identified by analyzing fluorescence intensity in the AlexaFluor 647 and ZsGreen1 emission channels using the ImageQuant system, following standard fluorescent methodology. […] Additionally all vectors encoding all hits, plus control vectors, were spotted in duplicate on new slides, and used to reverse transfect human HEK293 cells as before.

[5] = target: T5, NRP2a-GFP fusion protein on HEK293T cells (human, UniProt O60462 23-931); test: immunofluorescence microscopy (IN Cell Analyzer) on fixed HEK293T cells expressing NRP2v2-GFP, GFP-bright gate; Fc-HRS(2-60) titrated in 2-fold steps and complexed with anti-Fc-PE [panel A]
T5 construct: Transiently expressed; cells fixed before staining; also called NRP2v2-GFP; cell-expressed NRP2a; not shown: GFP (Origene RG220706, NM_003872 ORF clone)
Protocol: HEK293T cells previously transfected with NRP2v2-GFP were passed the night before staining to 96 well Greiner Clear flat bottomed Microplates pre-coated with collagen coating solution. Supernatants were removed and cells were washed 1 time with binding buffer. Cells were then fixed with 50 μL of 3.7% methanol-free formaldehyde for 20 minutes at room temperature. Cells were washed 2× with binding buffer and then blocked with 100 μL of blocking buffer for 1 hour at room temperature. The cells were then washed one time with binding buffer and then incubated with 50 μL of staining complex overnight at 4 degrees Celsius. Cells were then washed 3 times with binding buffer, and then nuclei were counter stained with […] Hoechst diluted in DPBS for 10 minutes at room temperature. The Hoechst stain was replaced with 1×PBS and subsequently read on an IN Cell Analyzer 2200. 20× images were acquired and analyzed using In Cell Analyzer 1000 Workstation software. Segmentation of the cell mask was achieved using the GFP channel, and the average PE signal intensity was determined within this mask above a threshold intensity of 5000 (termed GFP Bright cells).

B1: Fc-HRS(2-60) (Fc fusion)
chain: {human IgG Fc}-AERAALEELVKLQGERVRGLKQQKASAELIEEEVAKLLKLKAQLGPDESKQKFVLKTPK
modifications: also: linker to Fc not given here, biotinylated for flow assay (maleimide-PEG11-biotin, ~3.35 per molecule)
notes: Fc at the N-terminus, HRS residues 2-60 (WHEP domain) at the C-terminus; in the imaging assay pre-complexed with anti-Fc-PE; also called HRS-Fc fusion protein construct; ATYR1923; not shown: human IgG Fc region
binding result [1]: no binding (tested: 50 nM) | binding result [2]: no binding (tested: 50 nM) | binding result [3]: binds | binding result [4]: binds | binding result [5]: binds
